Values quoted from earlier work, collected in patent US11414673B2, “Hypersensitive ABA receptors having modified PP2C-binding interfaces” (THE REGENTS OF THE UNIVERSITY OF CALIFORNIA, priority 2017, dated 2022).

Test system: ABA responses
Conditions: Pizzio et al., Plant Physiol. 163, 441-455 (2013)

B1: PYL4^A194T: PYL4 ABA receptor with A194T mutation in its carboxyl terminus, described by Pizzio et al. (protein, UniProt O80920 1-207, looked up, variant A194T)
Abscisic acid receptor PYL4: MLAVHRPSSAVSDGDSVQIPMMIASFQKRFPSLSRDSTAARFHTHEVGPNQCCSAVIQEISAPISTVWSVVRRFDNPQAYKHFLKSCSVIGGDGDNVGSLRQVHVVSGLPAASSTERLDILDDERHVISFSVVGGDHRLSNYRSVTTLHPSPISGTVVVESYVVDVPPGNTKEETCDFVDVIVRCNLQSLAKITENTAAESKKKMSL
ABA concentration needed to elicit measured ABA responses, in comparison to wild type PYL4: requires lower concentrations of ABA
